Values belong to the binder of their own block, whether it stands above or below them.
What was measured:
[1] = target: PD-1 chimera: extracellular domain of human PD-1 with trans-membrane and cytoplasmic domains of human CD300a, … (human, UniProt Q9UGN4 181-299, limits assumed); test: cell-based or functional assay
Target sequence in this assay (Q9UGN4 other isoform, or with tags, fused parts or gaps mutant limits assumed, form in doubt): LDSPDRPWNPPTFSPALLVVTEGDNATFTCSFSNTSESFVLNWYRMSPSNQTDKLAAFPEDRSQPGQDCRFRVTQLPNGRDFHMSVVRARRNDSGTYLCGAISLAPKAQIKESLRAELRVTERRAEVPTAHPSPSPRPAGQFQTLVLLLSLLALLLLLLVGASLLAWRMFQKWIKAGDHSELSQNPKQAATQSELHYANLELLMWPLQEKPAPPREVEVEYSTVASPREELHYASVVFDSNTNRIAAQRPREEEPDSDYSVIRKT

[2] = target: T1, full length human PD-1 on HEK293/hPD-1 cells (human, UniProt Q15116 25-288); test: FACS, 100 nM mAb, HEK293/hPD-1 cells;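 also: antibodies incubated with cells for 15-30 min on ice, bound antibody detected through a secondary F(ab′)2 by flow cytometry, with parental HEK293 cells tested in parallel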
T1 sequence (Q15116 25-288 limits assumed): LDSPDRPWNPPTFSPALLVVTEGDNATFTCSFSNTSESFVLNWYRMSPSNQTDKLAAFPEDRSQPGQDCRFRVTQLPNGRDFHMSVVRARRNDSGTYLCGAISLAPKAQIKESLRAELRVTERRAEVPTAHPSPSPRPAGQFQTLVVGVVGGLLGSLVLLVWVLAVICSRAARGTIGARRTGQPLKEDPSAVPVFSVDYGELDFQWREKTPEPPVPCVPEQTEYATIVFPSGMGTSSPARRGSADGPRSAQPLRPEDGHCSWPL
Protocol: (§1) For the assay, adherent cells were detached using trypsin or enzyme-free dissociation buffer and blocked with complete medium. Cells were centrifuged and resuspended at a concentration of 2.5-6×10̂6 cells/mL in cold PBS containing 2% FBS. HEK293 parental and HEK293/hPD-1 cells were then incubated for 15-30min on ice with 100 nM of each anti-PD-1 antibody. […] Cells were washed with D-PBS containing 2% FBS to remove unbound secondary F(ab′)2 and fluorescence measurements were acquired using either a HyperCyte (IntelliCyt, Inc.) flow cytometer or an Accuri flow cytometer (BD Biosciences). Data was analyzed using FlowJo software (Tree Star).

[3] = target: T1, full length human PD-1 on HEK293/hPD-1 …; test: FACS, 100 nM mAb
Protocol: as §1

[4] = target: T2, recombinant human PD-1 dimer expressed with a C-terminal mouse IgG2a Fc tag (human); test: BLI Octet: 100 nM hPD-1-mFc + 500 nM mAb to captured hPD-L1-hFc
T2 construct: also called hPD-1-mFc
T2 sequence (chain, as listed by the source limits assumed): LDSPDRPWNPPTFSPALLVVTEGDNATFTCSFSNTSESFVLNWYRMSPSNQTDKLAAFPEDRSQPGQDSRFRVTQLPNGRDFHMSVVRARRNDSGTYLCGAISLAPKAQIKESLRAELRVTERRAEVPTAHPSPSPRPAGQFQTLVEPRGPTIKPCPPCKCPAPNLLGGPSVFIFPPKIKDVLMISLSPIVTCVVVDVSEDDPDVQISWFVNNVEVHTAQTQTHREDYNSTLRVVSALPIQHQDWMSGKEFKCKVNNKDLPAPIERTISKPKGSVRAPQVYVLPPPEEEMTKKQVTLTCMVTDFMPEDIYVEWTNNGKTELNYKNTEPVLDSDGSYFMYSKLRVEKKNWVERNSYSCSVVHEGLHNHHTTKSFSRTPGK
Protocol: Inhibition studies for anti-PD-1 monoclonal antibodies expressed with a mouse Fc were performed on an Octet Red 96 instrument. […] The biosensors were washed in Octet HBST buffer in between each step of the experiment. The real-time binding responses were monitored during the entire course of the experiment and the binding response at the end of every step was recorded.

[5] = target: T1, full length human PD-1 on HEK293/hPD-1 …; test: FACS dose response, HEK293/hPD-1 cells; EC50 Inconclusive
Protocol: (§2) For the assay, adherent cells were detached using trypsin and blocked with complete medium. Cells were centrifuged and resuspended at a concentration of 6×10̂6 cells/mL in staining buffer (1% FBS in PBS). To determine the EC₅₀ and Eₘₐₓ of the anti-PD1 antibodies, 90 uL of cell suspension was incubated for 30 minutes on ice with a serial dilution of anti-PD-1 antibodies and controls diluted to a final concentration ranging from 5 pM to 100 nM (no mAb sample was included as negative control) in staining buffer. Cells were then centrifuged and pellets were washed once with staining buffer to remove unbound antibodies. […] The following day, cells were centrifuged and pellets were washed once with staining buffer, resuspended and filtered. Fluorescence measurements were acquired on Hypercyt® cytometer and analyzed in ForeCyt™ (IntelliCyt; Albuquerque, N. Mex.) to determine the mean fluorescence intensities (MFI). The EC₅₀ values were calculated from a four-parameter logistic equation over an 11-point response curve using GraphPad Prism. Eₘₐₓ for each antibody was defined as the binding at the highest antibody dose (100 nM) tested.

[6] = target: T3, recombinant human PD-L1 expressed with a C-terminal mouse IgG2a Fc tag (human); test: SPR Biacore 3000: 500 nM mAb alone (no hPD-1.hFc) over captured hPD-L1.mFc surface, control
T3 construct: also called hPD-L1-mFc; hPD-L1.mFc

[7] = target: T1, full length human PD-1 on HEK293/hPD-1 …; test: FACS dose response, HEK293/hPD-1 cells; No EC50 determined
Protocol: as §2

monkey PD-1 with mFc [8] = target: T4, monkey PD-1 with mFc (monkey); test: SPR, captured mAb, 25 C;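 also: purified anti-PD-1 antibodies tested on Biacore 4000 or T200 instruments, rate constants obtained via 1:1 binding model fit, with KD as kd/ka and half-life as ln2/(60·kd)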
T4 construct: also called monkey PD-1-mFc; monkey PD-1 dimer
T4 chain: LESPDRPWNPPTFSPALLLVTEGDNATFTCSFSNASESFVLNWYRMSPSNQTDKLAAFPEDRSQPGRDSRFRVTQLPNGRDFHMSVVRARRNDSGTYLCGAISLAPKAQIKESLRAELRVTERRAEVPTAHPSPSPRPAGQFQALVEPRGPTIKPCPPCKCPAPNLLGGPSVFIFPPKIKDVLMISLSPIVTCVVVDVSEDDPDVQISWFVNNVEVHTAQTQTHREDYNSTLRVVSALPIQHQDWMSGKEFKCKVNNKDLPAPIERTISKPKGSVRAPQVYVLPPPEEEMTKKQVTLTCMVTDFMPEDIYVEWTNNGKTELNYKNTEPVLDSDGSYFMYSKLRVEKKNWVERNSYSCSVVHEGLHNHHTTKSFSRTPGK
Protocol: (§3) Binding association and dissociation rate constants (kₐ and kd, respectively), equilibrium dissociation constants and dissociation half-lives (KD and t_{1/2}, respectively) for antigen binding to purified anti-PD1 antibodies were determined using a real-time surface plasmon resonance biosensor assay on a Biacore 4000 or Biacore T200 instrument. […] Experiments were performed at 25° C. and 37° C. Kinetic association (kₐ) and dissociation (kd) rate constants were determined by processing and fitting the data to a 1:1 binding model using Scrubber 2.0c curve fitting software. Binding dissociation equilibrium constants (KD) and dissociative half-lives (t_{1/2}) were then calculated from the kinetic rate constants as: KD(M)=kd/kₐ and t_{1/2} (min)=[In2/(60*kd)].

monkey PD-1 with mFc [9] = target: T4, monkey PD-1 with mFc; test: SPR, captured mAb, 37 C;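 also: Real-time Biacore surface plasmon resonance biosensor readout of PD-1 reagent binding to purified anti-PD-1 monoclonal antibodies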
Protocol: as §3

[10] = target: T5, recombinant human PD-1 expressed with a C-terminal myc-myc-hexahistidine tag (human); test: SPR (Biacore), mAb captured, hPD-1-MMH injected, 25 C;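 also: rate constants obtained by fitting sensorgrams to a 1:1 binding model, KD derived as kd/ka and half-life as ln2/(60·kd) in minutes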
T5 construct: also called hPD-1-MMH; human PD-1-MMH
Protocol: as §3

[11] = target: PD-1 chimera: extracellular domain of human PD-1 with trans-membrane and cytoplasmic domains of human CD300a, … (human, UniProt Q9UGN4 181-299, limits assumed); test: cell-based or functional assay; remark: listed apart in the source
Target sequence in this assay (Q9UGN4 other isoform, or with tags, fused parts or gaps mutant limits assumed, form in doubt): as the sequence (Q9UGN4 other isoform, or with tags, fused parts or gaps mutant limits assumed, form in doubt) above

500 nM of anti-PD-1 monoclonal antibody (RU) [6]: -2 RU
Emax mean [%] @ 100 nM [1]: 102%
MFI [2]: 1940 MFI
ratio of MFI HEK293/hPD-1 to HEK293 parental cells [3]: 6.8
Max Geom. Mean MFI @ 100 nM [7]: 639 MFI
100 nM Monkey PD-1-mFc Bound (RU) (monkey PD-1 with mFc [8]): 17 RU
Kd (monkey PD-1 with mFc [8]): 54.2 nM
koff (monkey PD-1 with mFc [8]): 0.00309 s⁻¹
kon (monkey PD-1 with mFc [8]): 57000 M⁻¹ s⁻¹
t1/2 (monkey PD-1 with mFc [8]): 4 min
100 nM Monkey PD-1-mFc Bound (RU) (monkey PD-1 with mFc [9]): 6 RU
Kd (monkey PD-1 with mFc [9]): 86.3 nM
koff (monkey PD-1 with mFc [9]): 0.0105 s⁻¹
kon (monkey PD-1 with mFc [9]): 121000 M⁻¹ s⁻¹
t1/2 (monkey PD-1 with mFc [9]): 1.1 min
B2: H4H9068P2 (antibody, V domains shown)
VH: EVQLVESGGGLVQRGGSLRLSCAASGFSFSSYAMNWVRQAPGKGLEWVSTISDSGGSTYYADSVKGRFTISRDNSKNTLSLQMNSLRAEDTAVYYCAKDQGGSYPYYFHYWGQGTLVTVSS
VL: not shown
notes: fully human; H4H prefix (human IgG4 Fc)

Kd [10]: 15.6 nM
koff [10]: 0.00122 s⁻¹
kon [10]: 78400 M⁻¹ s⁻¹
t½ [10]: 9.5 min
Emax, AP1-Luc signal at 100 nM antibody (% of signal without anti-PD-1 antibody) [11]: 163%
B3: H4xH9119P2 (antibody, human IgG4, V domains shown)
VH: EVQLVESGGGLVQPGRSLRLSCAASGFTFEDYAMHWVRQAPGKGLEWVSGIGWSNVKIGYADSVKGRFTISRDNVRNSLYLQMNSLRTEDTAFYYCVKAYTSMLTLYFDYWGQGTLVTVSS
VL: not shown
notes: H4xH: modified human IgG4 Fc

The remaining lines, values behind:

B1: H1M7789N (antibody, V domains shown)
VH: EVQLLESGGGLVQPGGSLRLSCSASGFTFSSYTMNWVRQAPGKGLEWVSGISDTGGNTYYTDSVKGRFTVSRDNSKNTLSLQMNSLRAEDTAVYYCAKDQGGSYPYYFHYWGQGSLVTVSS
VL: DIQMTQSPSSLSASVGDRVTITCRASQSISSYLIWYQQKPGTAPKFLIYAASSLQSGVPSRFSGCGSGTDFTLTISSLQPEDFATYYCQQSYSTPPITFGQGTRLEIK
notes: human variable regions, mouse IgG1 Fc
Emax mean [%] @ 100 nM [1]: 135%
MFI [2]: 24200 MFI
ratio of MFI HEK293/hPD-1 to HEK293 parental cells [3]: 92.3
% Blocking [4]: 29%
binding of the mixture (nm) [4]: 0.05 nm
Max Geom. Mean MFI @ 100 nM [5]: 35600 MFI

B4: H2aM7791N (antibody, V domains shown)
VH: QMQLQQWGAGLLKPSETLSLTCVVYGGSLNGYYWSWIRQSPGKGLEWIGEIDHSGSTNYNPSLKNRVTMSVDTSKIQFSLKLTSVTVADTAVYYCAREGLLPFDYWGQGTLVTVSS
VL: EIVLTQSPGTLSLSPGERVTLSCRASQSVYSNYLAWYQQNPGQAPRLLIYAASNRATGIPDRFSGSGSGTDFTLTISRLEPEDFAVYYCHQYATSPWTFGQGTKVEIK
notes: human variable regions, mouse IgG2a Fc; also called H2M7791N
Emax mean [%] @ 100 nM [1]: 103%
MFI [2]: 4950 MFI
ratio of MFI HEK293/hPD-1 to HEK293 parental cells [3]: 18
Max Geom. Mean MFI @ 100 nM [7]: 1400 MFI
% Blocking [4]: -229%
binding of the mixture (nm) [4]: 0.23 nm

B5: H2aM7795N (antibody, V domains shown)
VH: EVQVVESGGGLVEPGRSLRLSCKASGFTFDDYAMHWVRQTPGKALEWVSGINWSGNNIGYADSVKGRFTISKDDAKNSLYLQMNSLRPEDTALYYCTKDISITGTLDAFDVWGQGTMVTVSS
VL: DIQMTQSPISVSASVGDRVTITCRASQGISNWLAWYQQKPGIAPKLLIYSASSLQSGVPSRFRGSGSGTDFTLTIGSLQPEDFATYYCQQAHSFPLTFGGGTKVEIK
notes: human variable regions, mouse IgG2a Fc; also called H2M7795N
Emax mean [%] @ 100 nM [1]: 109%
MFI [2]: 817 MFI
ratio of MFI HEK293/hPD-1 to HEK293 parental cells [3]: 2.8
Max Geom. Mean MFI @ 100 nM [7]: 624 MFI
% Blocking [4]: 114%
binding of the mixture (nm) [4]: -0.01 nm

Source: patent US20150203579A1 (Regeneron, published 2015)
